Substrate: NC(=O)CCCC[C@@H](S)CCS
Test: purified protein
Conditions: 100 mM Na phosphate, 100 mM KCl, 8 mM TCEP pH 7.6, room temperature

B1: Lpd (dihydrolipoamide dehydrogenase; lipoamide dehydrogenase) (Escherichia coli K-12) (protein)
chain: MSTEIKTQVVVLGAGPAGYSAAFRCADLGLETVIVERYNTLGGVCLNVGCIPSKALLHVAKVIEEAKALAEHGIVFGEPKTDIDKIRTWKEKVINQLTGGLAGMAKGRKVKVVNGLGKFTGANTLEVEGENGKTVINFDNAIIAAGSRPIQLPFIPHEDPRIWDSTDALELKEVPERLLVMGGGIIGLEMGTVYHALGSQIDVVEMFDQVIPAADKDIVKVFTKRISKKFNLMLETKVTAVEAKEDGIYVTMEGKKAPAEPQRYDAVLVAIGRVPNGKNLDAGKAGVEVDDRGFIRVDKQLRTNVPHIFAIGDIVGQPMLAHKGVHEGHVAAEVIAGKKHYFDPKVIPSIAYTEPEVAWVGLTEKEAKEKGISYETATFPWAASGRAIASDCADGMTKLIFDKESHRVIGGAIVGTNGGELLGEIGLAIEMGCDAEDIALTIHAHPTLHESVGLAAEVFEGSITDLPNPKAKKK
Question: Which Km does the source give for B1 here?
Answer: Its Km is 180 ± 20 µM.
